This passage reports kon results from publication PMC9775641, “Conformational Dynamics of the Receptor-Binding Domain of the SARS-CoV-2 Spike Protein” (Biomedicines, 2022).

This assay addresses T1, Wild-type (WT) receptor-binding domain (RBD) of SARS-CoV-2 spike protein, 330-528 aa fragment (SARS-CoV-2, wild type (Wuhan-1), UniProt P0DTC2).
T1 construct: also called WT RBD; wild-type RBD
In words: SPR. Particulars: both partners purified.

B1: SARS-CoV-2 neutralizing antibody P4A1 (full-length IgG1) (antibody, V domains shown)
VH: EVQLVESGGGLIQPGGSLRLSCAASGFIVSSNYMSWVRQAPGKGLEWVSIIYSGGSTFYADSVKGRFTISRDNSKNTLYLQMNSLRVEDTAVYYCARDLQELGSLDYWGQGTLVTVSS
VL: DIQMTQSPSSVSASVGDRVTITCRASQGISSWLAWYQQKPGKAPKLLIYAASSLQSGVPSRFSGSGSGTDFTLTISSLQPEDFATYYCQEANSFPYTFGQGTKLEIK
notes: also called P4AI; Ab
The kon is the rate constant with which the complex forms. Low values mean slower complex formation, high ones faster complex formation. As for B1, the kon is 770000 M⁻¹ s⁻¹.
